# In patent publication EP4682166A1 (Guangzhou Enmai Biotechnology Co., Ltd, dated 2026):
# T1: human NMI (N-myc Interacting protein) (human, UniProt Q13287 1-307, limits assumed)
# T1 construct: Immunogen and ELISA coating antigen; also called hNMI; antigen 1
# T1 sequence (looked up): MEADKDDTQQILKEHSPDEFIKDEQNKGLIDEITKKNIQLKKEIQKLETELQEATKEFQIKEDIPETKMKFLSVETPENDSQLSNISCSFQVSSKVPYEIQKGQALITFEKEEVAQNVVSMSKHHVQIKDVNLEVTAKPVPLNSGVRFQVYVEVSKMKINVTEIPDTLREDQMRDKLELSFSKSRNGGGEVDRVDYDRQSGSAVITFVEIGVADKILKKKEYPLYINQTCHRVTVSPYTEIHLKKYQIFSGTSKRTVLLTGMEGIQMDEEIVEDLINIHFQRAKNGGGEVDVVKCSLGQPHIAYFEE
# T2: human NMI (N-myc Interacting protein), recombinant protein (human, UniProt Q13287 1-307, limits assumed)
# T2 construct: Gene ID: 9111; also called hNMI; antigen
# T2 sequence (looked up): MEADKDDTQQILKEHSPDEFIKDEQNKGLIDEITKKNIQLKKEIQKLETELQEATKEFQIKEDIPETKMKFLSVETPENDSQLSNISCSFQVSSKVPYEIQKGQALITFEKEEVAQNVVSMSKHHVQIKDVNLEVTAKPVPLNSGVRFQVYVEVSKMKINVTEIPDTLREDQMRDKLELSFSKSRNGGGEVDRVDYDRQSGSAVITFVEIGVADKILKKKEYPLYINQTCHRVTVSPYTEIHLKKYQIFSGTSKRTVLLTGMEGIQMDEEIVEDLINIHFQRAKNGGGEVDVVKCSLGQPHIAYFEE
# What was measured:
# [1] = target: T1, human NMI (N-myc Interacting protein); test: indirect ELISA, human NMI coated; supernatant 1/9
# [2] = target: T1, human NMI (N-myc Interacting protein); test: indirect ELISA, human NMI coated; supernatant 1/59049
# [3] = target: T1, human NMI (N-myc Interacting protein); test: I-ELISA, hNMI coated 1 ug/mL; antibody 625 ng/mL
# [4] = target: T1, human NMI (N-myc Interacting protein); test: I-ELISA, hNMI coated 1 ug/mL; antibody 39.0625 ng/mL
# [5] = target: T1, human NMI (N-myc Interacting protein); test: indirect ELISA, human NMI coated; supernatant 1/2187
# [6] = target: T1, human NMI (N-myc Interacting protein); test: I-ELISA, hNMI coated 1 ug/mL; antibody 2500 ng/mL
# [7] = target: T1, human NMI (N-myc Interacting protein); test: indirect ELISA, human NMI coated; supernatant 1/6561
# [8] = target: T1, human NMI (N-myc Interacting protein); test: indirect ELISA, human NMI coated; supernatant 1/3
# [9] = target: T1, human NMI (N-myc Interacting protein); test: indirect ELISA, human NMI coated; supernatant 1/19683
# [10] = target: T1, human NMI (N-myc Interacting protein); test: I-ELISA, hNMI coated 1 ug/mL; antibody 2.4414063 ng/mL
# [11] = target: T1, human NMI (N-myc Interacting protein); test: I-ELISA, hNMI coated 1 ug/mL; antibody 9.765625 ng/mL
# [12] = target: T1, human NMI (N-myc Interacting protein); test: indirect ELISA, human NMI coated; supernatant 1/27
# [13] = target: T1, human NMI (N-myc Interacting protein); test: I-ELISA, hNMI coated 1 ug/mL; antibody 4.8828125 ng/mL
# [14] = target: T1, human NMI (N-myc Interacting protein); test: indirect ELISA, human NMI coated; supernatant 1/243
# [15] = target: T1, human NMI (N-myc Interacting protein); test: indirect ELISA, human NMI coated; supernatant 1/729
# [16] = target: T1, human NMI (N-myc Interacting protein); test: I-ELISA, hNMI coated 1 ug/mL; antibody 1250 ng/mL
# [17] = target: T1, human NMI (N-myc Interacting protein); test: indirect ELISA, human NMI coated; supernatant undiluted
# [18] = target: T1, human NMI (N-myc Interacting protein); test: indirect ELISA, human NMI coated (repeats Table 1)
# [19] = target: T1, human NMI (N-myc Interacting protein); test: indirect ELISA, human NMI coated; supernatant 1/81
# [20] = target: T1, human NMI (N-myc Interacting protein); test: sandwich ELISA; coating antibody 2.5 ug/mL, detection 94C4-biotin 0.5 ug/mL
# [21] = target: T1, human NMI (N-myc Interacting protein); test: I-ELISA, hNMI coated 1 ug/mL; antibody 1.2207031 ng/mL
# [22] = target: T1, human NMI (N-myc Interacting protein); test: I-ELISA, hNMI coated 1 ug/mL; antibody 156.25 ng/mL
# [23] = target: T1, human NMI (N-myc Interacting protein); test: I-ELISA, hNMI coated 1 ug/mL; antibody 19.53125 ng/mL
# [24] = target: T1, human NMI (N-myc Interacting protein); test: I-ELISA, hNMI coated 1 ug/mL; antibody 78.125 ng/mL
# [25] = target: T1, human NMI (N-myc Interacting protein); test: indirect ELISA, human NMI coated; supernatant dilution series
# [26] = target: T1, human NMI (N-myc Interacting protein); test: I-ELISA, hNMI coated 1 ug/mL; antibody 312.5 ng/mL
# [27] = target: T1, human NMI (N-myc Interacting protein); test: indirect ELISA, human NMI coated (repeats Table 3)
# [28] = target: T1, human NMI (N-myc Interacting protein); test: indirect ELISA, human NMI coated; supernatant dilution series; remark: listed apart in the source
# [29] = target: T2, human NMI (N-myc Interacting protein), …; test: sandwich ELISA; detection 98G10-1-biotin; hNMI 3.704 ng/mL
# [30] = target: T2, human NMI (N-myc Interacting protein), …; test: sandwich ELISA; detection 39B4-1-biotin; hNMI 3.704 ng/mL
# [31] = target: T2, human NMI (N-myc Interacting protein), …; test: sandwich ELISA; detection 98G10-1-biotin; hNMI 33.333 ng/mL
# [32] = target: T2, human NMI (N-myc Interacting protein), …; test: indirect ELISA, coated hNMI
# [33] = target: T2, human NMI (N-myc Interacting protein), …; test: sandwich ELISA; detection 98G10-1-biotin; hNMI 100.000 ng/mL
# [34] = target: T2, human NMI (N-myc Interacting protein), …; test: sandwich ELISA; detection 39B4-1-biotin; hNMI 1.235 ng/mL
# [35] = target: T2, human NMI (N-myc Interacting protein), …; test: sandwich ELISA; detection 98G10-1-biotin; hNMI 11.111 ng/mL
# [36] = target: T2, human NMI (N-myc Interacting protein), …; test: sandwich ELISA; detection 39B4-1-biotin; hNMI 33.333 ng/mL
# [37] = target: T2, human NMI (N-myc Interacting protein), …; test: sandwich ELISA; detection 39B4-1-biotin; hNMI 100.000 ng/mL
# [38] = target: T2, human NMI (N-myc Interacting protein), …; test: sandwich ELISA; detection 39B4-1-biotin; hNMI 11.111 ng/mL
# [39] = target: T2, human NMI (N-myc Interacting protein), …; test: sandwich ELISA; detection 98G10-1-biotin; hNMI 1.235 ng/mL
OD450 [3],OD450 [4],OD450 [6],OD450 [10],OD450 [11],OD450 [13],OD450 [16],detection limit (sensitivity) [20],OD450 [21],OD450 [22],OD450 [23],OD450 [24],OD450 [26],EC50 [27],EC50 [28],Binder,other results
1.99 OD450,0.828 OD450,2.25 OD450,0.099 OD450,0.296 OD450,0.159 OD450,2.13 OD450,40 pg/mL,0.077 OD450,1.8 OD450,0.529 OD450,1.43 OD450,1.99 OD450,–,–,"39B4 (antibody, V domains shown, Rabbit monoclonal antibody; also called 39B4-1; 39B4-1-biotin (biotin-labelled form)) VH: QEQLVESGGGLVQPEGSLTLTCTASGFSFSSSYWICWVRQAPGKGLEWIACIYAGTSGSTYYASWAKGRFTISKTSSTTVDLQMNSLTAADTATYFCARAGYYTYGAGVYIYPSSFKLWGPGTLVTVSS VL: DVVMTQTPASVEAAVGGTVTIKCQASESIGNALAWYQQKPGQPPKLLIYSASNLASGVPSRFSGSGSGTQFTLTISDLECADAATYYCQSYYYSSSSITFGGGTEVVVK",ELISA OD [1]: 3.41 OD; ELISA OD [2]: 0.415 OD; ELISA OD [5]: 2.32 OD; ELISA OD [7]: 1.61 OD; ELISA OD [8]: 3.43 OD; ELISA OD [9]: 0.758 OD; ELISA OD [12]: 3.35 OD; ELISA OD [14]: 3.1 OD; ELISA OD [15]: 2.76 OD; ELISA OD [17]: 3.4 OD; EC50 [18]: 0.567 ng/mL; ELISA OD [19]: 3.28 OD; EC50 [25]: 0.567 ng/mL
1.62 OD450,0.838 OD450,1.85 OD450,0.099 OD450,0.243 OD450,0.143 OD450,1.68 OD450,60 pg/mL,0.084 OD450,1.36 OD450,0.502 OD450,1.26 OD450,1.67 OD450,2.51 ng/mL,2.51 ng/mL,"B-8 (antibody, V domains shown, Rabbit monoclonal antibody; also called B8-1; B-8-biotin (biotin-labelled form)) VH: QSLEESGGDLVKPGASLTLTCTASGFSFSSSYYMCWVRQAPGKGLEWIACIYAGSSGSTYYASWAKGRFTISKTSSTTVTLQMTSLTAADTATYFCAREYSYDDYGDFWGFNLWGPGTLVTVSS VL: ALVMTQTPSSVSAAVGGTVTINCQASQNIYTNLAWYQQKPGQPPKLLIYGASNLESGVPSRFKGSGSGTEYTLTISDLECDDAATYYCQSSLYSRIADRANAFGGGTEVVVK",–
2.2 OD450,0.996 OD450,2.15 OD450,0.105 OD450,0.333 OD450,0.163 OD450,2.13 OD450,60 pg/mL,0.077 OD450,1.85 OD450,0.573 OD450,1.46 OD450,2.19 OD450,2.6 ng/mL,2.6 ng/mL,"240B10-1 (antibody, V domains shown, Rabbit monoclonal antibody; also called 240B10-1-biotin (biotin-labelled form)) VH: QSLEESGGRLVTPGGSLTLTCTVSGIDLSSYTMGWVRQAPGKGLEYIGIISGGGRTYYASWAKGRFTISKTSSTTVDLKVTSLTTEDTATYFCARIYTLWGQGTLVTVSS VL: QVLTQTLASVSAAVGGTVTINCQSSQSVYNNDYLAWFQQKSGQPPKQLIHSASKLASGVPSRFKGSGSGTQFTLTINDVQCDDAATYYCLGGYDCYSADCNVFGGGTEVVVK",–
–,–,–,–,–,–,–,–,–,–,–,–,–,–,–,"monoclonal antibody 94C4 (antibody, V domains shown, Rabbit monoclonal antibody; Used biotin-labelled as detection antibody (94C4-1-biotin); also called 94C4-1) VH: QSLEESGGGLVQPEGSLTLTCKASGFDFSSNAMCWVRQAPGKGLEWIACISSASSGSSGSTYYASWAKGRFTISKTSSTTVTLQMTSLTAADMATYFCARDGYDLWGPGTLVTVSS VL: QVLTQTPSSVSAAVGGTVTISCQSSPSVYNNYLSWFQQKPGQSPKLLIYRVSTLASGVPSRFSGSGSGTQFTLTISGVQCDDAATYYCAGGYDSASDTYVFGGGTEVVVK",OD450 [29]: 0.627 OD450; OD450 [30]: 0.735 OD450; OD450 [31]: 2.51 OD450; EC50 [32]: 32.7 ng/mL; OD450 [33]: 3.1 OD450; OD450 [34]: 0.372 OD450; OD450 [35]: 1.36 OD450; OD450 [36]: 2.75 OD450; OD450 [37]: 3.22 OD450; OD450 [38]: 1.67 OD450; OD450 [39]: 0.292 OD450
